Reference: publication PMC6757106, “Prokaryotic soluble overexpression and purification of oncostatin M using a fusion approach and genetically engineered E. coli strains” (Scientific Reports, 2019)

Legend:
[1] = target: the molecule itself; test: non-reducing SDS-PAGE; final purified tag-free OSM run on 10% tricine SDS-PAGE under reducing and non-reducing conditions, Coomassie stained
[2] = target: the molecule itself; test: SEC; HiLoad 16/600 Superdex 75 pg, 1x PBS pH 7.4, 1 mL/min; final proteins after tag cleavage

B1: Human Oncostatin M (OSM), tag-free, purified from the MBP-OSM fusion expressed in BL21(DE3) (ligand, UniProt P13725 26-221, looked up)
chain: AAIGSCSKEYRVLLGQLQKQTDLMQDTSRLLDPYIRIQGLDVPKLREHCRERPGAFPSEETLRGLGRRGFLQTLNATLGCVLHRLADLEQRLPKAQDLERSGLNIEDLEKLQMARPNILGLRNNIYCMAQLLDNSDTAEPTKAGRGASQPPTPTPASDAFQRKLEGCRFLHGYHRFMHSVGRVFSKWGESPNRSRR
notes: Oncostatin M, human; Tag removed with TEV protease at ENLYFQ/G; surmised); Printed size 22.05 kDa; also called MBP fusion-derived OSM; OSM purified from MBP-OSM; source: E. coli BL21(DE3), 18 °C, purified (IMAC, TEV protease cleavage, second IMAC); not shown: His6, N-terminal, cleaved; MBP, N-terminal, cleaved
binding result [1]: binds

B2: Human Oncostatin M (OSM), tag-free, purified from the His6-OSM fusion expressed in Origami 2 (ligand, UniProt P13725 26-221, looked up)
chain: B1 chain
notes: Oncostatin M, human; Tag removed with TEV protease at ENLYFQ/G; a glycine probably stays at the N-terminus (surmised from the cysteine numbering); Printed size 22.05 kDa; also called His6 fusion-derived OSM; OSM purified from His-OSM; source: E. coli Origami 2(DE3), 18 °C, purified (IMAC with 2 M urea, TEV protease cleavage, second IMAC); not shown: His6, N-terminal, cleaved
binding result [2]: binds
